Test results from article PMC11480844 (2024).

B1: H2-Kb / Ed39 (parent complex)
chain 1: GEQVEQRPPHLSVREGDSAVIICTYTDPNSYYFFWYKQEPGAGLQLLMKVFSSTEINEGQGFTVLLNKKDKQLSLNLTAAHPGDSAVYFCATMSNYNVLYFGSGTKLTVEP
chain 2: GALVYQYPRRTICKSGTSMRMECQAVGFQATSVAWYRQSPQKTFELIALSTVNSAIKYEQNFTQEKFPISHPNLSFSSMTVLNAYLEDRGLYLCGARDGSYEQYFGPGTRLTVL
chain 3: not shown
chain 4: IQKTPQIQVYSRHPPENGKPNILNCYVTQFHPPHIEIQMLKNGKKIPKVEMSDMSFSKDWSFYILAHTEFTPTETDTYACRVKHDSMAEPKTVYWDRDM
chain 5: SIINFEKL
B2: H2-Kb / Ed8 (parent complex)
chain 1: AQSVTQPDARVTVSEGASLQLRCKYSYFGTPYLFWYVQYPRQGLQLLLKYYPGDPVVQGVNGFEAEFSKSNSSFHLRKASVHWSDWAVYFCAVSPGSGGKLTLGAGTRLQVNL
chain 2: DSGVVQSPRHIIKEKGGRSVLTCIPISGHSNVVWYQQTLGKELKFLIQHYEKVERDKGFLPSRFSVQQFDDYHSEMNMSALELEDSAMYFCASSPRASNYTFGSGTRLLVI
chain 3: not shown
chain 4: B1 chain 4
chain 5: SIINFEKL

Variants of: B1
Assay: % of reporter cells activated (NFAT-GFP), raw
Note: test concentration or dose not given here.

| ratio to parent | Variant |
| --- | --- |
| 0.617 | chain 5 L8Q |
| 0.884 | chain 5 L8N |
| 0.468 | chain 5 L8W |
| 0.485 | chain 5 L8K |
| 0.361 | chain 5 L8E |
| 0.453 | chain 5 L8P |
| 0.425 | chain 5 L8D |
| 0.622 | chain 5 F5I |
| 1.01 | chain 5 F5M |
| 0.259 | chain 5 F5E |
| 0.358 | chain 5 F5D |
| 0.821 | chain 5 F5V |
| 0.973 | chain 5 F5A |
| 0.0498 | chain 5 N4K |
| 0.196 | chain 5 N4L |
| 0.0192 | chain 5 N4C |
| 0.0203 | chain 5 N4Y |
| 0.00203 | chain 5 N4T |
| 0.0741 | chain 5 N4S |
| 0.174 | chain 5 N4P |

| ratio to parent | Variant |
| --- | --- |
| 0.00191 | chain 5 N4V |
| 0.127 | chain 5 N4W |
| 0.0214 | chain 5 K7I |
| 0.112 | chain 5 K7A |
| 0.408 | chain 5 K7L |
| 0.0761 | chain 5 K7F |
| 0.0355 | chain 5 E6H |
| 0.034 | chain 5 E6T |
| 0.0946 | chain 5 E6Q |
| 0.00482 | chain 5 E6I |
| 0.00523 | chain 5 E6N |
| 0.0073 | chain 5 E6A |
| 0.00443 | chain 5 E6R |
| 0.0117 | chain 5 E6Y |
| 0.0124 | chain 5 E6C |
| 0.265 | chain 5 E6D |
| 0.284 | chain 5 I2Y |
| 0.593 | chain 5 I2R |
| 0.366 | chain 5 I2Q |
| 0.612 | chain 5 I2D |

| ratio to parent | Variant |
| --- | --- |
| 0.244 | chain 5 I2H |
| 1.09 | chain 5 I2V |
| 0.954 | chain 5 I2A |
| 0.431 | chain 5 I3C |
| 0.0488 | chain 5 I3F |
| 0.314 | chain 5 I3N |
| 0.0404 | chain 5 I3Y |
| 0.293 | chain 5 I3P |
| 0.0638 | chain 5 I3R |
| 0.956 | chain 5 I3V |
| 0.402 | chain 5 I3D |
| 0.00622 | chain 5 S1P |
| 0.00365 | chain 5 S1D |
| 0.0621 | chain 5 S1C |
| 0.00347 | chain 5 S1Q |
| 0.0114 | chain 5 S1W |
| 0.00457 | chain 5 S1T |
| 0.00392 | chain 5 S1E |
| 0.0073 | chain 5 S1A |

Variants of: B2
Assay: % of reporter cells activated (NFAT-GFP), raw

| ratio to parent | Variant |
| --- | --- |
| 0.799 | chain 5 S1R |
| 1.12 | chain 5 S1D |
| 1.28 | chain 5 S1E |
| 1.03 | chain 5 S1C |
| 1.3 | chain 5 S1H |
| 1.25 | chain 5 S1F |
| 0.983 | chain 5 S1I |
| 1.28 | chain 5 S1A |
| 1.16 | chain 5 S1Y |
| 0.821 | chain 5 S1N |
| 1.02 | chain 5 S1K |
| 1.25 | chain 5 I2F |
| 1.43 | chain 5 I2T |
| 1.13 | chain 5 I2H |
| 1.3 | chain 5 I2G |
| 1.41 | chain 5 I2A |
| 1.41 | chain 5 I2V |
| 1.2 | chain 5 I2M |
| 1.37 | chain 5 I2S |
| 1.4 | chain 5 I2P |
| 1.24 | chain 5 F5A |
| 1.02 | chain 5 F5K |
| 1.21 | chain 5 F5S |

| ratio to parent | Variant |
| --- | --- |
| 0.932 | chain 5 F5E |
| 1.23 | chain 5 F5H |
| 1.1 | chain 5 F5N |
| 1.25 | chain 5 F5M |
| 0.895 | chain 5 F5I |
| 1.19 | chain 5 F5R |
| 1.04 | chain 5 F5Q |
| 1.34 | chain 5 F5Y |
| 0.0673 | chain 5 K7D |
| 0.826 | chain 5 K7W |
| 0.326 | chain 5 K7C |
| 1.16 | chain 5 K7R |
| 0.648 | chain 5 K7T |
| 0.958 | chain 5 K7Y |
| 0.809 | chain 5 K7N |
| 0.662 | chain 5 K7Q |
| 0.643 | chain 5 K7A |
| 1.17 | chain 5 I3D |
| 1.27 | chain 5 I3M |
| 1.02 | chain 5 I3Q |
| 0.98 | chain 5 I3F |
| 1.22 | chain 5 I3G |
| 0.813 | chain 5 I3Y |

| ratio to parent | Variant |
| --- | --- |
| 1.17 | chain 5 I3E |
| 1.26 | chain 5 I3V |
| 1.03 | chain 5 I3W |
| 1.3 | chain 5 I3S |
| 1.34 | chain 5 I3T |
| 1.32 | chain 5 I3N |
| 1.03 | chain 5 I3K |
| 1.27 | chain 5 I3C |
| 0.853 | chain 5 L8E |
| 1.21 | chain 5 L8P |
| 1.05 | chain 5 L8A |
| 1.16 | chain 5 L8Y |
| 1.04 | chain 5 L8C |
| 0.95 | chain 5 L8W |
| 1.13 | chain 5 L8M |
| 1.2 | chain 5 L8G |
| 1.24 | chain 5 L8R |
| 1.1 | chain 5 L8T |
| 1.22 | chain 5 L8H |
| 1.13 | chain 5 L8Q |
| 1.06 | chain 5 L8N |
| 1.15 | chain 5 L8K |
| 0.945 | chain 5 L8S |

| ratio to parent | Variant |
| --- | --- |
| 0.877 | chain 5 L8V |
| 0.721 | chain 5 N4K |
| 0.00468 | chain 5 N4Y |
| 0.0339 | chain 5 N4G |
| 0.0721 | chain 5 N4C |
| 0.436 | chain 5 N4D |
| 0.469 | chain 5 N4I |
| 0.0175 | chain 5 N4V |
| 0.00281 | chain 5 N4M |
| 0.015 | chain 5 N4F |
| 0.733 | chain 5 E6N |
| 1.13 | chain 5 E6D |
| 0.0522 | chain 5 E6L |
| 1.04 | chain 5 E6G |
| 0.127 | chain 5 E6T |
| 0.777 | chain 5 E6Q |
| 0.349 | chain 5 E6S |
| 0.00371 | chain 5 E6I |
| 0.573 | chain 5 E6H |
| 0.27 | chain 5 E6P |
| 0.0912 | chain 5 E6F |
| 1.14 | chain 5 E6K |
